Molecular target: T1, ND2.3-GST (Homo sapiens, UniProt P03891)
T1 construct: amino acids 1-188 (ND2.3-GST); made in house; host or cells: bacteria
Experiment: dot blot of biotinylated Src peptides on ND2.3-GST
Type: binding
Conditions: biotinylated peptide
Protocol: Src, Fyn, and ND2 recombinant proteins were prepared. The cDNAs encoding the SH3 and SH2 domains of mouse n-Src and Fyn were PCR subcloned, ligated in frame into pGEX4T-1 (Amersham Pharmacia Biotech, Baie d'Urfé, Québec), and sequenced. These plasmids, as well as plasmids encoding the unique domains of Src and Fyn in pGEX2T'6, were transformed into BL21 bacteria, and GST fusion proteins were purified by glutathione affinity chromatography. To create the ND2.1, ND2.2, and ND2.3 GST fusion proteins, cDNAs encoding amino acids 239-321 (ND2.1-GST; SEQ ID NO:7), amino acids 189-238 (ND2.2-GST; SEQ ID NO:11), and amino acids 1-188 (ND2.3-GST; SEQ ID NO:13) of human ND2 were PCR subcloned and ligated into pGEX4T-1 (the nucleotide sequence encoding ND2 is SEQ ID NO:8 and the amino acid sequence is SEQ ID NO:9; the nucleotide sequences encoding ND2.1; ND2.2 and ND2.3 are SEQ ID NOS:6, 10 and 12, respectively). Using PCR-based single nucleotide mutagenesis, all cDNAs encoding ND2 fusion proteins were corrected for differences between mitochondrial and nuclear codons to prevent premature translation termination and protein truncation. […]
Src40-58 and scrambled Src peptides were biotinylated by incubating with Sulfo-NHS-Biotin (Pierce Chemical Co., Rockford, Ill.) for 30 minutes at room temperature (SEQ ID NO:4, Src protein). […] Bound probe was then detected on film using an ECL kit.

T1 sequence (P03891 1-188): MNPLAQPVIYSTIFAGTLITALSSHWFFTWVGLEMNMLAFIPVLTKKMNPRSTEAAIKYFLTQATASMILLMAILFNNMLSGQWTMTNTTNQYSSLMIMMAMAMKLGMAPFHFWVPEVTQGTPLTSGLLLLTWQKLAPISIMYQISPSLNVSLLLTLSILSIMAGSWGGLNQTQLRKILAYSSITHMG

## Src40-58: peptide comprising amino acid residues 40-58 of SEQ ID NO:4 (Src) (PASADGHRGPSAAFAPAAA; listed as Homo sapiens)
  binding to ND2.3-GST: Neither Src40-58 nor scrambled Src40-58 bound

From patent US8003609B2, “Method for ameliorating pain by modification of NMDA receptors through inhibition of Src” (The Hospital for Sick Children, priority 2004, dated 2011)
